According to patent publication US20170355774A1 (Regeneron, published 2017):

Columns and labels:
[1] = biological target: T1, human GITR (amino acids M1-V241, NCBI Accession #NP_004186.1) expressed on cells (human, UniProt Q9Y5U5 26-241); assay: cell-based or functional assay
T1 sequence: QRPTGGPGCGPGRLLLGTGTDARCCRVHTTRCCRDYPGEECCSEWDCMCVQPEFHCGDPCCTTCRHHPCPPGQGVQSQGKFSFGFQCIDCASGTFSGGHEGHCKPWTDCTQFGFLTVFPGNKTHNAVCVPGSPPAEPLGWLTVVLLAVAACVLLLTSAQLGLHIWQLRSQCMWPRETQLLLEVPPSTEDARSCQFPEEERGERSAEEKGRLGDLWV

[2] = biological target: T1, human GITR (amino acids M1-V241, NCBI …); assay: cell-based or functional assay; remark: listed apart in the source
[3] = biological target: T1, human GITR (amino acids M1-V241, NCBI …); assay: cell-based or functional assay; remark: listed apart in the source
[4] = biological target: T1, human GITR (amino acids M1-V241, NCBI …); assay: ECL cell binding, hGITR/HEK293-D9
Method in brief: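 Cells blocked with 2% BSA, then antibody dilutions from 1.7 pM to 100 nM added 1 h at RT. Bound antibody detected with SULFO-TAG anti-human kappa antibody, electrochemiluminescence read, RLU fitted by four-parameter logistic; signal at 100 nM on hGITR cells versus parental cells also recorded.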

[5] = biological target: T1, human GITR (amino acids M1-V241, NCBI …); assay: cell-based or functional assay; remark: listed apart in the source
mfGITR.mmh = biological target: T2, mfGITR.mmh (Macaca fasicularis); assay: SPR 37C, mAb capture
T2 construct: soluble monomeric construct; also called Macaca fasicularis (mf) GITR.mmh; cynomolgus GITR protein
T2 chain: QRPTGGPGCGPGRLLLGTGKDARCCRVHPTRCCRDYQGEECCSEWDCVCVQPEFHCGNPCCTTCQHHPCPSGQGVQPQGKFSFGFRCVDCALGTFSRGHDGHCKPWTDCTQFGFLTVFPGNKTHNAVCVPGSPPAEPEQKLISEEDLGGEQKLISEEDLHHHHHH

hGITR.mFc = biological target: T3, hGITR.mFc (human); assay: SPR 37C, mAb capture
T3 construct: soluble dimeric construct with mouse Fc; also called dimeric human GITR
T3 chain: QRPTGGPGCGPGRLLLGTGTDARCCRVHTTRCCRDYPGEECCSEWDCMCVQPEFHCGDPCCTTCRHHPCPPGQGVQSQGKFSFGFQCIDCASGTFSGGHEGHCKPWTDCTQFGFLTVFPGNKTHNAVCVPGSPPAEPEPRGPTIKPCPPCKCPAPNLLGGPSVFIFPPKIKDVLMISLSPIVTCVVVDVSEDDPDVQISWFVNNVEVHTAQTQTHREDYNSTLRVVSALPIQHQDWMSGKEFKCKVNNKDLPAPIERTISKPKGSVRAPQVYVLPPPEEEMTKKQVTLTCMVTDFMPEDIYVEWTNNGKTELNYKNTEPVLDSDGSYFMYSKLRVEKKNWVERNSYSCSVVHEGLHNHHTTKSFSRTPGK

hGITR.mmh = biological target: T4, hGITR.mmh (human); assay: SPR 37C, mAb capture
T4 construct: soluble monomeric construct; also called human (h) GITR.mmh; monomeric human GITR
T4 chain: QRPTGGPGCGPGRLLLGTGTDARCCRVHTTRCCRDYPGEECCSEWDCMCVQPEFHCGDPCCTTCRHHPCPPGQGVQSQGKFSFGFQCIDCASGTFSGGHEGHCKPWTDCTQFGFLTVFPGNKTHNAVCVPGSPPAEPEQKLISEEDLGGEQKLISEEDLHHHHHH

| Binder | fold activation, T-cell proliferation, plate-bound Ab 10.6 nM, donor 1 [1] [fold] | fold activation, T-cell proliferation, plate-bound Ab 10.6 nM, donor 2 [1] [fold] | fold activation, T-cell proliferation, plate-bound Ab 10.6 nM, donor 3 [1] [fold] | fold activation, T-cell proliferation, plate-bound Ab 10.6 nM, donor 4 [1] [fold] | fold activation, T-cell proliferation, plate-bound Ab 10.6 nM, donor 5 [1] [fold] | fold activation, T-cell proliferation, plate-bound Ab 10.6 nM, donor 6 [1] [fold] | fold activation, T-cell proliferation, plate-bound Ab 10.6 nM, donor 7 [1] [fold] | fold activation, T-cell proliferation, plate-bound Ab 10.6 nM, donor 8 [1] [fold] | fold activation, T-cell proliferation, plate-bound Ab 10.6 nM, mean [1] [fold] | % Activation, NF-kB-Luc, non-anchored [2] [%] | % Blocking, NF-kB-Luc, non-anchored [2] [%] | EC50, hGITR activation, NF-kB-Luc, non-anchored [2] [nM] | IC50, blocking of hGITRL stimulation, NF-kB-Luc, non-anchored [2] [nM] | fold activation, T-cell proliferation, 33 nM, FcgR anchored, donor 1 [3] [fold] | fold activation, T-cell proliferation, 33 nM, FcgR anchored, donor 2 [3] [fold] | fold activation, T-cell proliferation, 33 nM, FcgR anchored, donor 3 [3] [fold] | fold activation, T-cell proliferation, 33 nM, FcgR anchored, donor 4 [3] [fold] | fold activation, T-cell proliferation, 33 nM, FcgR anchored, donor 5 [3] [fold] | fold activation, T-cell proliferation, 33 nM, FcgR anchored, mean [3] [fold] | Average Signal (RLU) at 100 nM [4] [RLU] | other results |
| --- | --- | --- | --- | --- | --- | --- | --- | --- | --- | --- | --- | --- | --- | --- | --- | --- | --- | --- | --- | --- | --- |
| H4H14539P2 (antibody, human IgG4, V domains shown, human IgG4 (H4H)) VH: QVQLVESGGGVVQPGRSLRLSCAASGFSFSSYGMHWVRQAPGKGLEWMAVIWYAGSNKFYADSVKGRFTISRDNSKNTLYLQMNSLTAEDTAVYYCARGSSLAAPDLYKYGMDVWGQGTTVTVSS VL: not shown | 2 | 12 | 12 | 13 | 12 | 39 | 11 | 6 | 13 | 20 | 30 | 1.3 | 1.2 | 0.9 | 0.7 | 1.1 | 1.5 | 1.5 | 1.1 | 4910 | EC50 [4]: 0.3 nM; fold activation, T-cell proliferation, 22 nM, non-anchored, donor 1 [5]: 0.5 fold; fold activation, T-cell proliferation, 22 nM, non-anchored, donor 2 [5]: 0.8 fold; fold activation, T-cell proliferation, 22 nM, non-anchored, donor 3 [5]: 1.1 fold; fold activation, T-cell proliferation, 22 nM, non-anchored, donor 4 [5]: 0.8 fold; fold activation, T-cell proliferation, 22 nM, non-anchored, mean [5]: 0.8 fold; Kd (mfGITR.mmh): 22.8 nM; koff (mfGITR.mmh): 0.00165 s⁻¹; kon (mfGITR.mmh): 72300 M⁻¹ s⁻¹; t½ (mfGITR.mmh): 7 min; Kd (hGITR.mFc): 0.554 nM; koff (hGITR.mFc): 0.000472 s⁻¹; kon (hGITR.mFc): 853000 M⁻¹ s⁻¹; t½ (hGITR.mFc): 24.5 min; Kd (hGITR.mmh): 82.5 nM; koff (hGITR.mmh): 0.0177 s⁻¹; kon (hGITR.mmh): 214000 M⁻¹ s⁻¹; t½ (hGITR.mmh): 0.7 min |
| H4H14528P (antibody, human IgG4, V domains shown, human IgG4 (H4H)) VH: QVQLVESGGGVVQPGRSLRISCAASGFTFNNYGFHWVRQAPGRGLEWVAVIWYSGSNKYYGDSVKGRFTISRDNSKNILYLQMNSLRAEDTAIYYCARFPFSSSWLLDYWGQGTLVTVSS VL: DIQLTQSPSFLSASVGDRVTFTCWASQGISDYLAWYQQKPGKAPKLLIYAASALQSGVPSRFSGSGSGTEFTLTVSSLQPEDFATYYCQQLNSYPFTFGPGTKVDIK | 2 | 8 | 8 | 4 | 8 | 31 | 5 | 4 | 8 | 30 | 90 | 1.1 | 3.4 | 0.9 | 1.5 | 1.1 | 1.9 | 1.7 | 1.4 | 7310 | EC50 [4]: 0.45 nM; fold activation, T-cell proliferation, 22 nM, non-anchored, donor 1 [5]: 0.6 fold; fold activation, T-cell proliferation, 22 nM, non-anchored, donor 2 [5]: 0.8 fold; fold activation, T-cell proliferation, 22 nM, non-anchored, donor 3 [5]: 0.9 fold; fold activation, T-cell proliferation, 22 nM, non-anchored, donor 4 [5]: 1 fold; fold activation, T-cell proliferation, 22 nM, non-anchored, mean [5]: 0.8 fold; binding result (mfGITR.mmh): no binding; Kd (hGITR.mFc): 1.12 nM; koff (hGITR.mFc): 0.00177 s⁻¹; kon (hGITR.mFc): 1.58e+06 M⁻¹ s⁻¹; t½ (hGITR.mFc): 6.5 min; Kd (hGITR.mmh): 51.3 nM; koff (hGITR.mmh): 0.00523 s⁻¹; kon (hGITR.mmh): 102000 M⁻¹ s⁻¹; t½ (hGITR.mmh): 2.2 min |
